A short description of this data set: soluble on expression in E. coli; label from the status in PepcDB or PDB records.
Turning to “MIGFIGSVFSPWYRWSGRKEPQNHCCLNVATYGPGGRFTMTDRGRAALRQSPDTLTVGPSRMHWTGTQLIVEVNEISSPPLVSPVKGRIVLTPTGITDVEVTLKDDGSHIWRPFAPTARIEVDLTQGHRWHGHGYFDANFGTAALEADFRFWTWGRYPVADGAACFYDATRRDGSRLELGLHVAADGRARLIQPPPEARFARSRWLVERHTPADPGTRPRQVMSMLDAPFYSRAMVETTVFGQKTVGVHEALDLRRFRSPLLMPMLAVRVPRRPGWSF”, the “soluble on expression in E. coli” value is recorded as “not soluble”. For the sequence “MNSDLALLRLLQLASPGLPVGGFTYSQGLEWAVEAGWVRGVDSFAGWQREQVHDTLACLDWPVLARLYHACQAKDAEAFGHWSRFLLANRETAELRLEEQQRGAALARLLDGWQLGQAPAWRASLELTQLGGMAWLAAHWAIPLRQLALGHGFAWLEGAVMAGVKLVPFGQQAAQTLLRDLGADLPAALDQALALGDDQLGGGLPLLAIASSRHETQYTRLFRSLEHHHHHH”, the “soluble on expression in E. coli” value is recorded as “soluble”.

In the case of “MGSDKIHHHHHHLRSNRVTQHPPLQLSLPVHLPDDETFTSYYPAAGNDELIGALKSAASGDGVQAIYLWGPVKSGRTHLIHAACARANELERRSFYIPLGIHASISTALLEGLEQFDLICIDDVDAVAGHPLWEEAIFDLYNRVAEQKRGSLIVSASASPMEAGFVLPDLVSRMHWGLTYQLQPMMDDEKLAALQRRAAMRGLQLPEDVGRFLLNRMARDLRTLFDVLDRLDKASMVHQRKLTIPFVKEMLRL”, the “soluble on expression in E. coli” value was “not soluble”. The same measure for “MSLNPNDFKDELKSVALEKANVNLRLDGDISWSFFPWLGLGLEDIGVSIGSDPEILQFDRAEFGLAILPLLKQKIQVDKVNLVNLKASLNKNAQGQGNWQLDLPDSTPAASSSIPATTASTASSTSANDTVEKLKLPDIQLDELRIENAQVQYRDEQTKQLINATLNVQLNDVQWDKAWPMVMDIAVTQSDLQGKSPIKAKATLNANLAVFPEREALSLDSLVLSADVESELLPTSPISAKLSAANVDVDLPQENVLAEGLALSVLGVNVDAKIQAYQVLSEPQFSAVLTVGEFNPRYLMTRLNLPLPEMSDDTAMTKARANVTLEGSLDSITAQPISITIDDTNIEANAVVDLSPLRWDVSVAGKNLDLDRYLPTPVEKGKDGKVEAITDVDIAAKTESGDLIPIDLIRSLNGHVGMVFENLTAKKLKIDKIELDSTQSNGLVKISPLRAYLYKGSVSSKASLDVRGITPVFNISPAIDGVQIQPLLVDFMDMNKIAGATYLNGELKAKGNSVDDLMSSLQGDLLIDIKKGALVGTNLTKTVCEGIAAVRKEKIDEQQFGPDTPFETMRFPAHIVNGRVSTPGLKISSAGIQVTGDGVVSLPNSSLDYQANVGIAGSELDKACHVNEKVTKLAFPIVCKGKFSDDPAGLCRPDIKGFGKLFADLAEDELKLKVDAEKARLKEGHHHHHH”: “soluble”.

As to “MGSDKIHHHHHHMTTEIRALYTRLPAIDRLLRDPAFSPLLAQHGHSQVVAQLRQMLDEAREQISQRQTLPDWSHDWQHACEQRLTAGQRSALRPVFNLTGTVLHTNLGRAIQAESAVEAVASAMRAPVTLEYDLDDAGRGHRDRAIADLLCQITGAEDACIVNNNAAAVLLMLAATASGREVVVSRGELVEIGGAFRIPDVMRQAGCQLHEVGTTNRTHAKDYRQAVNDNTALLMKVHTSNYSIEGFTKAVDEAELAAIGRELDVPVVADLGSGSLVDLSQYGLPKEPMPQEMIAAGVSLVSFSGDKLLGGPQAGIIVGKRALIAQLQSHPLKRALRADKMTLAALEATLRLYQHPEALREKLPTLRLLTRPAEEIRRLAERLQPDLAAHYADFAVSVAACQSQIGSGSLPVDRLPSAALTFTPHDGRGSRLEALAARWRALPCPVIGRIYDGRLWLDLRCLEDETRFMEMLLR”, the “soluble on expression in E. coli” value is on record as “not soluble”. The same measure for “MTGLLDGKRILVSGIITDSSIAFHIARVAQEQGAQLVLTGFDRLRLIQRITDRLPAKAPLLELDVQNEEHLASLAGRVTEAIGAGNKLDGVVHSIGFMPQTGMGINPFFDAPYADVSKGIHISAYSYASMAKALLPIMNPGGSIVGMDFDPSRAMPAYNWMTVAKSALESVNRFVAREAGKYGVRSNLVAAGPIRTLAMSAIVGGALGEEAGAQIQLLEEGWDQRAPIGWNMKDATPVAKTVCALLSDWLPATTGDIIYADGGAHTQLL”: “soluble”; for “MGSDKIHHHHHHMKQGIEFIKFNPTQNMTILVETNDPIGEYKHIAEKIMSYDSVYAEQVGFIEKPLNRQAAAHLEMAGGEFCGNACMALAALIASEKGLRPTELMEIVLEVSGTDNLVMCQVERTLDEFHCQVTMPLPKQIEQKIVKYDGSEMNLIIVRYQEFIHIVIEVDDFNKIVREKAQSLAKLLGVTLGTNLIGILLYKSNTSELAPLIFVPDLDSMIWERGCGSGTASLGAYLAWKNKKEIVAKIKQPGGTIQVIATCEEEKLTSLKIEGSVSIVARGKAFIDV”: “not soluble”. Next, “GPGSMKEIILYTRPNCPYCKRARDLLDKKGVKYTDIDASTSLRQEMVQRANGRNTFPQIFIGDYHVGGCDDLYALENKGKLDSLLQDVH”: “soluble”; “MKEAYAQELIDYYNQSTNDVLKRTASISENEKPRVLFLVYDQRKNSYWTPGGEFYQNNLITMAGGKTVSSDLPTGKAQINVEQAASWNPDVIITSAHTMEYPSTKVKEDVLTDEGWKEINAVKSGNVYAMPFDGESWDTLGSKYVLGLYWTAKTLHPDMYLEHHHHHH”: “soluble”; “MGSSHHHHHHSAGENLYFQGQQGDLMPQSALFTGIIPPVSTIFTADGQLDKPGTAALIDDLIKAGVDGLFFLGSGGEFSQLGAEERKAIARFAIDHVDRRVPVLIGTGGTNARETIELSQHAQQAGADGIVVINPYYWKVSEANLIRYFEQVADSVTLPVMLYNFPALTGQDLTPALVKTLADSRSNIIGIKDTIDSVAHLRSMIHTVKGAHPHFTVLCGYDDHLFNTLLLGGDGAISASGNFAPQVSVNLLKAWRDGDVAKAAGYHQTLLQIPQMYQLDTPFVNVIKEAIVLCGRPVSTHVLPPASPLDEPRKAQLKTLLQQLKLCCGRTRAPPPPPLRSGC”: “soluble”. Next, “PVTETVDGQGQAWRHHNGFDFAVIKELKTAASQYGATAPYTLAIVESVADNWLTPTDWNTLVRAVLSGGDHLLWKSEFFENCRDTAKRNQQAGNGWDFDMLTGSGNYSSTDAQMQYDPGLFAQIQAAATKAWRKLPVKGD”: “soluble”. Regarding “MSLAHGIPSQGKVTITVDEYSSNPTQAFTHYNINQSRFQPPHVHMVDPIPYDTPKPAGHTRFVCISDTHSRTDGIQMPYGDILLHTGDFTELGLPSEVKKFNDWLGNLPYEYKIVIAGNHELTFDKEFMADLVKQDYYRFPSVSKLKPEDFDNVQSLLTNSIYLQDSEVTVKGFRIYGAPWTPWFNGWGFNLPRGQSLLDKWNLIPEGIDILMTHGPPLGFRDWVPKELQRVGCVELLNTVQRRVRPKLHVFGGIHEGYGIMTDGYTTYINASTCTVSFQPTNPPIIFDLPNPQGSEGHHHHHH”, the “soluble on expression in E. coli” value was “soluble”. Next, “MHMELRMVGRLSWITLFTLFLVGCSSAPDDSSPHSQVNDPLESFNRQMWTINYDYLDPYVVRPVSLFYVGYVPKPVRSGIANFLSNLDEPASMVNNLLMGNGTKAVDHFNRFWINTSFGLLGLIDIASEAGIKKYDDKAFSDAVGHYGVGNGPYLMVPGYGPYTVREVTDVVDGMYFPLAYLNIWAGVGKWALEGMETRAALVSQEALLQDSPDPYSLARDAYLQRQAFKAEIQVDDYDPEEEEYLDEYLNEGL”: “not soluble”; “MGAPALPQIWQLYLKNYRIATFKNWPFLEDCACTPERMAEAGFIHCPTENEPDLAQCFFCFKELEGWEPDDNPIEEHRKHSPGCAFLTVKKQMEELTVSEFLKLDRQRAKNKIAKETNNKQKEFEETAKTTRQSIEQLAA”: “soluble”; “MPEITRRRALTAAAAVAATASAAVTLAAPAASAAGHHEPAAPESFDEVYKGRRIQGRPARGAAHHHEHGGGYEVFVDGVQLHVMRNADGSWISVVSHFDPVPTPRAAARAAVDELQGAPLLPFPANLEHHHHHH”: “soluble”. Next, “MSLDVEDTVKKLNLKFRNIEGERLILAITCDENKNVLMVAFMNEEALKKTLETGYMHYYSTSRKKLWRKGEESGNVQKLIKFYRDCDGDALLFIVEQKGVACHEGYYSCFHYKIEDGELKITGEYYSKREGHHHHHH”: “soluble”.

Source of the values: the DeepSol protein solubility set.
